# Data reported in patent publication US20190106487A1 (Sanofi, published 2019).
# T1: human IL-1RAcP on 293T/17-FR cells (human, UniProt Q9NPH3 21-570)
# T1 sequence (looked up): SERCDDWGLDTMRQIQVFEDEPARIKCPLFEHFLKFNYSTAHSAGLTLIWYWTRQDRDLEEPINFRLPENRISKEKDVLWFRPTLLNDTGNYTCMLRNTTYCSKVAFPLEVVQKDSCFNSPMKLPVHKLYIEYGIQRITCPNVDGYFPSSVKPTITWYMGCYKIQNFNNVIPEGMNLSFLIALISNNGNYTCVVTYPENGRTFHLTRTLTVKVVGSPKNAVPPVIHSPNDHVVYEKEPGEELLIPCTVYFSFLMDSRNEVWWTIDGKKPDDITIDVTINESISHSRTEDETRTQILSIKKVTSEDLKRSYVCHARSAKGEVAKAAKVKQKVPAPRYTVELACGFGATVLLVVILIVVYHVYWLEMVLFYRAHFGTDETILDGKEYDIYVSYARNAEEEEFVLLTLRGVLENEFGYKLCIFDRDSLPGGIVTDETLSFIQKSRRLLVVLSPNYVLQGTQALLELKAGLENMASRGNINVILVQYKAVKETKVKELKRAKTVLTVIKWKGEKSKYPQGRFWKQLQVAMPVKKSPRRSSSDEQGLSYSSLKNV
# T2: rhIL-1RAcP/Fc Chimera (human, UniProt Q9NPH3 21-359)
# T2 construct: also called P013_03; P013-03
# T2 sequence (looked up): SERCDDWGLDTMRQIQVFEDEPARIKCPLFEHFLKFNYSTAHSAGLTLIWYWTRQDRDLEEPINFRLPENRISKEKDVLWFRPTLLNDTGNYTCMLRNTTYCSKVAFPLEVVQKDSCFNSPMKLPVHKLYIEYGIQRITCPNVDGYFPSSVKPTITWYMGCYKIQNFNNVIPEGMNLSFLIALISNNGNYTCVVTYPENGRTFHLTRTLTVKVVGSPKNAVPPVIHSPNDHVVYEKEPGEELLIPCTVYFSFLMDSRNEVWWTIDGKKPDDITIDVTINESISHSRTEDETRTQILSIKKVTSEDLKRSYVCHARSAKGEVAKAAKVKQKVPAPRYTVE
# T3: mIL1RAcP-Fc (murine, UniProt Q61730 21-359)
# T3 construct: also called P013_04; P013-04
# T3 sequence (looked up): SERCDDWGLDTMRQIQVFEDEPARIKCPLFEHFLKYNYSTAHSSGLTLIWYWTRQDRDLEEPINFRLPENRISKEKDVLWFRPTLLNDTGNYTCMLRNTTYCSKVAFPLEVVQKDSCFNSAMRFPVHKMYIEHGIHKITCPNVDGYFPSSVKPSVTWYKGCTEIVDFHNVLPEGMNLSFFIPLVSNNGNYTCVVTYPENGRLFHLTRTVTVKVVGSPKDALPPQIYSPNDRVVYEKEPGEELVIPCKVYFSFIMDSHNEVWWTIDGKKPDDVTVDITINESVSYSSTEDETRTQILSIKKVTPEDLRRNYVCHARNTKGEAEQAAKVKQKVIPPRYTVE
# B1: P013.S.01.B.C03 (antibody, V domains shown)
# VH: QSVEESGGRLVTPGTPLTLTCTVSGIDLSNYAMSWVRQAPGKGLEWIGSVISGGSTYYATWARGRFTISKSSTTVDLKMTSLTTEDTATYFCARGCPGYNGDKYTFDLWGPGTLVTVSS
# VL: AFEMTQTPSSVSEPVGGTVTIKCQASQSIYNYLSWYQQKPGQRPKLLIYRASTLASGVPSRFKGSGSGTEFTLTISGVESADAATYYCQQGATSYDIENPFGGGTEVVVK
# notes: rabbit monoclonal antibody; also called P013.A.00133.D11
# B2: P013.S.01.B.F06 (antibody, V domains shown)
# VH: QSVEESGGRLVTPGTPLTLTCTVSGIDLSSDAVGWVRQAPGKGLEYIGIIVSSGETFYASWARGRCTISKTSSTTVDLRITRLTTEDTATYFCARGGPGYSFDTEYAFDPWGPGTLVTVSS
# VL: AFEMTQTPASVEVAVGGTVTINCQASQSIGSWLSWYQQKVGQRPKLLISRASTLASGVPSRFKGSGSGTEYTLTISGVQSDDAATFYCQQGATTYDVDNVFGGGTEVVVR
# notes: rabbit monoclonal antibody; also called P013.A.00045.E09
# B3: P013.S.01.B.A02 (antibody, V domains shown)
# VH: QSVEESGGRLVTPGTPLTLTCTVSGIDLSSYAMGWVRQAPGKGLEYIGVITSSATTYYASWAKGRFTISKTSSTTVDLRVTSLTTEDTATYFCARGGPGYSTNTHYAFDPWGPGTLVTVSS
# VL: AFEMTQTPSSVSEPVGGTVTIKCQASQSIYIYLSWYQQKPGQRPKLLIYDASKLASGVPSRFSGSGSGTEFTLTISGVQSDDAATYYCQQGATTYNVDNVFGGGTEVVVK
# notes: rabbit monoclonal antibody; also called P013.A.00003.H11
# B4: P013.S.02.B.G02 (antibody, V domains shown)
# VH: QSLEESGGDLVKPGASLTLTCTASGFSLSSGGMTWVRQAPGKGLEWIGYINTGSGRTYYASWAKGRFIISKTSSTTVSLQMTSLTAADTATYFCAGGLPSDLWGPGTLVTVSS
# VL: DIVMTQTPSSVEAAVGGTVTIKCQASQSINSRLAWYQQKPGQPPKLLIYDASTLASGVSSRFSGSGTEFTLTISDLESADGATYYCLSHYLTSSSSYGNAFGGGTEVVVK
# notes: rabbit monoclonal antibody; also called P013.A.00014.C07
# Molecular target: T1, human IL-1RAcP on 293T/17-FR cells
# Test: cell-based or functional assay
"functional reporter gene assay (% inhibition), 0.04 µg/mL mAb [%]","functional reporter gene assay (% inhibition), 0.2 µg/mL mAb [%]","functional reporter gene assay (% inhibition), 1 µg/mL mAb [%]","functional reporter gene assay (% inhibition), 5 µg/mL mAb [%]","primary supernatant functional assay (% inh.), NF-kB luciferase reporter [%]",Binder
54,77,84,90,83,B1
41,52,68,70,75,B2
46,94,95,98,92,B3
-2,0,5,0,-39,B4

# Molecular target: T2, rhIL-1RAcP/Fc Chimera
# Test: ELISA, recombinant purified mAb
row,EC50 [µg/mL],Binder
1,0.032,B1
2,0.039,B2
3,0.042,B3
4,0.493,B4

# Molecular target: T3, mIL1RAcP-Fc
# Test: ELISA, recombinant purified mAb
row,EC50 [µg/mL],Binder
1,0.332,B1
2,0.028,B2
3,0.025,B3
4,0.082,B4

# Molecular target: T3, mIL1RAcP-Fc
# Test: ELISA, primary supernatant, coated mu-IL-1RAcP-Fc
row,mu-IL1RaP ELISA (OD),Binder
1,2.3,B1
2,3.4,B2
3,1.2,B3
4,3.4,B4

# Molecular target: T2, rhIL-1RAcP/Fc Chimera
# Test: ELISA, primary supernatant, coated hu-IL-1RAcP-Fc
# Procedure, shortened: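 Plates coated with 0.5 μg/mL Fc-tagged human IL-1RAcP; rabbit B-cell supernatant antibodies detected by peroxidase anti-rabbit IgG Fab2 and TMB, absorbance 450/620 nm. Parallel IL12Rβ1-Fc coating served as counterscreen to exclude tag binders.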
row,hu-IL1RaP ELISA (OD),Binder
1,3.2,B1
2,2.8,B2
3,3.5,B3
4,3.6,B4
